Reference: PMC8096101

Molecular target: SMO657-nanoluc (UniProt P56726)
Experiment: BRET
Details: HEK293 cells; SMO657-nanoluc donor, YFP-tagged PKA-C acceptor; BRET ratio (YFP/nanoluc), background-subtracted; parent: est. 2.4; read off a plot

Chain of UniProt P56726 (P56726 65-657): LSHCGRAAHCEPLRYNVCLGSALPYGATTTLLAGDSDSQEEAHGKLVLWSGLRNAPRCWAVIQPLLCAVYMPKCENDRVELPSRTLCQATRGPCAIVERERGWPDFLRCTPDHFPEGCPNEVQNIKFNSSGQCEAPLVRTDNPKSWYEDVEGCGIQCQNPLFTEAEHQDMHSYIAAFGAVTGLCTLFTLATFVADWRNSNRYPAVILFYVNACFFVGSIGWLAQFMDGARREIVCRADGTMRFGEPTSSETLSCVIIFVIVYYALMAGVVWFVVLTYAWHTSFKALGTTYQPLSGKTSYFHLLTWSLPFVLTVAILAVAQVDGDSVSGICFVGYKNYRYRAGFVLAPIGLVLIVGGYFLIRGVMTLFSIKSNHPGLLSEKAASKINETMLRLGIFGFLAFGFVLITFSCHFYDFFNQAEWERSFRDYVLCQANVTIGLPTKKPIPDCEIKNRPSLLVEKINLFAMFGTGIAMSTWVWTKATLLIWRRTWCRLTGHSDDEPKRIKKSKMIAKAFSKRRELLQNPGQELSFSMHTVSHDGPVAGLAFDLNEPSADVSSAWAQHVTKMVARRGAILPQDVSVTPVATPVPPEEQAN

response: 2.5 BRET
Substance: PKA-C-YFP (PKA catalytic subunit alpha, carboxyl-terminally YFP-tagged) (from UniProt P05132) H87Q; W196R
